Reference: patent US20120316071A1 (published 2012)
Each block holds one binder with its values, some of them ahead of it.

Tests used:
[1] = biological target: T1, Recombinant Human DLL4 (R&D Systems Cat#1506-D4/CF) (human, UniProt Q9NR61 27-524); test: MSD Multispot ECL, antigen spotted on plate, Fab at 15 nM; blank spot 261
T1 construct: Bought recombinant protein; also called rHuman DLL4; delta-like protein 4

[2] = biological target: T2, rHuman Notch-1/Fc Chimera, CF (R&D Systems Cat#3647-TK) (human, UniProt P46531 19-526); test: as above
T2 construct: Bought Fc chimera; Fc part of the bought chimera not given

[3] = biological target: T3, rHuman CD44/Fc Chimera, CF (R&D Systems Cat#3660-CD) (human, UniProt P16070 21-220); test: as above
T3 construct: Bought Fc chimera; Fc part of the bought chimera not given

[4] = biological target: T4, rHuman P-Cadherin/Fc Chimera, CF (R&D Systems Cat#861-PC) (human, UniProt P22223 108-654); test: as above
T4 construct: Bought Fc chimera; Fc part of the bought chimera not given

[5] = biological target: T5, rHuman Erythropoietin R/Fc Chimera, CF (R&D Systems Cat#963-ER) (human, UniProt P19235 25-250); test: ECL Multispot (MSD), antigen spotted; Fab 5 (µM); blank 211
T5 construct: Bought recombinant protein; also called EPO R; EPO R/Fc; Fc part of the bought chimera not given
T5 sequence (looked up): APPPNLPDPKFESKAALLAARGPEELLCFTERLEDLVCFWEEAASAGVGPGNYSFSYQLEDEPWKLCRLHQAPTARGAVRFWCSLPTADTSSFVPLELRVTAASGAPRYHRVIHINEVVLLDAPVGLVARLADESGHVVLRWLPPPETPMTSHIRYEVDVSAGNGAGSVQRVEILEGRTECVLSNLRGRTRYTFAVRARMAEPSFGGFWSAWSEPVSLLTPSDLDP

[6] = biological target: T6, Recombinant Human DLL4 (R&D Systems Cat#1506-D4/CF) (human, UniProt Q9NR61 27-529); test: as above
T6 construct: Bought recombinant protein; also called delta-like protein 4; rHuman DLL4

[7] = biological target: T7, rHuman ErbB2/Fc Chimera, CF (R&D Systems Cat#1129-ER) (human, UniProt P04626 23-652); test: as above
T7 construct: Bought recombinant protein; Fc part of the bought chimera not given

[8] = biological target: T8, rHuman EGF R/Fc Chimera, CF (R&D Systems Cat#344-ER) (human, UniProt P00533 25-645); test: as above
T8 construct: Bought recombinant protein; Fc part of the bought chimera not given

[9] = biological target: T9, rHuman HGF R/c-MET/Fc Chimera, CF (R&D Systems Cat#358-MT/CF) (human, UniProt P08581 25-932); test: as above
T9 construct: Bought recombinant protein; also called HGF R/Fc; Fc part of the bought chimera not given

[10] = biological target: T10, rHuman Notch-1/Fc Chimera, CF (R&D Systems Cat#3647-TK) (human, UniProt P46531 19-526); test: as above
T10 construct: Bought recombinant protein; Fc part of the bought chimera not given

[11] = biological target: T11, rHuman CD44/Fc Chimera, CF (R&D Systems Cat#3660-CD) (human, UniProt P16070 21-220); test: as above
T11 construct: Bought recombinant protein; Fc part of the bought chimera not given

[12] = biological target: T12, rHuman IGF-1 sR, CF (R&D Systems Cat#391-GR) (human, UniProt P08069 31-932); test: as above
T12 construct: Bought recombinant soluble receptor; also called insulin-like growth factor-1 soluble receptor

[13] = biological target: T13, rHuman P-Cadherin/Fc Chimera, CF (R&D Systems Cat#861-PC) (human, UniProt P22223 108-654); test: as above
T13 construct: Bought recombinant protein; Fc part of the bought chimera not given

[14] = biological target: T14, rHuman Erythropoietin R/Fc Chimera, CF (R&D Systems Cat#963-ER) (human, UniProt P19235 25-250); test: Multispot ECL (MSD) assay, antigen spotted on plate, Fab at 0.0624 µM; blank spot 960
T14 construct: Bought recombinant protein; also called EPO R/Fc; Epo R; Fc part of the bought chimera not given
T14 sequence (looked up): T5 sequence (looked up)

[15] = biological target: T15, rHuman EGF R/Fc Chimera, CF (R&D Systems Cat#344-ER) (human, UniProt P00533 25-645); test: as above
T15 construct: Bought recombinant protein; also called epidermal growth factor receptor (EGF R); Fc part of the bought chimera not given

[16] = biological target: T16, rHuman HGF R/c-MET/Fc Chimera, CF (R&D Systems Cat#358-MT/CF) (human, UniProt P08581 25-932); test: as above
T16 construct: Bought recombinant protein; also called HGF R/Fc; hepatocyte growth factor receptor (HGF R/c-Met); Fc part of the bought chimera not given

[17] = biological target: T17, rHuman Notch-1/Fc Chimera, CF (R&D Systems Cat#3647-TK) (human, UniProt P46531 19-526); test: as above
T17 construct: Bought recombinant protein; Fc part of the bought chimera not given

[18] = biological target: T18, rHuman IGF-1 sR, (IGF-1 sR), CF (R&D Systems Cat#391-GR) (human, UniProt P08069 31-932); test: as above
T18 construct: Bought recombinant soluble receptor; also called insulin-like growth factor-1 soluble receptor

[19] = biological target: T19, rHuman P-Cadherin/Fc Chimera, CF (R&D Systems Cat#861-PC) (human, UniProt P22223 108-654); test: as above
T19 construct: Bought recombinant protein; Fc part of the bought chimera not given

ECL signal [1]: 690
ECL signal [2]: 508
ECL signal [3]: 454
ECL signal [4]: 351
B1: Fab VH6-1_IGHD3-3*01_IGHJ4*01 & V4-3_IGLJ4*01 (Fab, V domains shown)
VH: QVQLQQSGPGLVKPSQTLSLTCAISGDSVSSNSAAWNWIRQSPSRGLEWLGRTYYRSKWYNDYAVSVKSRITINPDTSKNQFSLQLNSVTPEDTAVYYCAREYYDFWSGYYTDYFDYWGQGTLVTVSS
VL: QPVLTQPTSLSASPGASARLTCTLRSGINLGSYRIFWYQQKPESPPRYLLSYYSDSSKHQGSGVPSRFSGSKDASSNAGILVISGLQSEDEADYYCMIWHSSASFVFGGGTQLIIL
notes: Tested as a purified germline Fab made in E. coli; The VH was cloned into plasmid A (CH1 constant region, His6 and Flag tags) and the lambda VL into plasmid E (lambda CL)

ECL signal [5]: 423
ECL signal [6]: 54900
ECL signal [7]: 401
ECL signal [8]: 356
ECL signal [9]: 309
ECL signal [10]: 338
ECL signal [11]: 343
ECL signal [12]: 300
ECL signal [13]: 547
B2: Fab VH1-46_IGHD6-6*01_IGHJ1*01 S102A/S103P/S104F (APF) & L6_IGKJ1*01 (Fab, V domains shown)
VH: QVQLVQSGAEVKKPGASVKVSCKASGYTFTSYYMHWVRQAPGQGLEWMGIINPSGGSTSYAQKFQGRVTMTRDTSTSTVYMELSSLRSEDTAVYYCAREEYAPFSAEYFQHWGQGTLVTVSS
VL: not shown
notes: Tested as a Fab made in E. coli: VH cloned in Plasmid A (CH1 constant region, His6 and Flag tags), VL in Plasmid C (kappa constant region); also called H:APF & L:wt; APF triple mutant

ECL signal [14]: 2680
ECL signal [15]: 2420
ECL signal [16]: 2450
ECL signal [17]: 2350
ECL signal [18]: 2030
ECL signal [19]: 4230
B3: Fab VH1-46_IGHD7-27*01_IGHJ2*01 & L6_IGKJ1*01 (Fab, V domains shown)
VH: QVQLVQSGAEVKKPGASVKVSCKASGYTFTSYYMHWVRQAPGQGLEWMGIINPSGGSTSYAQKFQGRVTMTRDTSTSTVYMELSSLRSEDTAVYYCARANWGYWYFDLWGRGTLVTVSS
VL: not shown
notes: Germline Fab made in E. coli; VH was cloned in Plasmid A (CH1 constant region, His6 and Flag tags) and the kappa VL in Plasmid C (kappa CL); Only the variable domains are tied to this Fab by name
